{"source": "paper PMC5580921", "about": "“Homeodomain-like DNA binding proteins control the haploid-to-diploid transition in Dictyostelium”", "binders": {"B1": {"name": "29-bp DNA (dsDNA)", "DNA 1": "CCGAAACGTTTGGTGGCGGGACCAGTGAC", "DNA 2": "GTCACTGGTCCCGCCACCAAACGTTTCGG"}, "B2": {"name": "58-bp DNA (dsDNA)", "DNA 1": "GAATCTTGCACGCCCTCGCTCAAGCCTTCGTCACTGGTCCCGCCACCAAACGTTTCGG", "DNA 2": "CCGAAACGTTTGGTGGCGGGACCAGTGACGAAGGCTTGAGCGAGGGCGTGCAAGATTC"}, "B3": {"name": "EMSA dsDNA with MATalpha2 operator (dsDNA)", "DNA 1": "CCGAAACGTTTGGTGGCGCATGTAATTCATTTACACGCGCGAGGGCGTGCAAGATTC", "DNA 2": "GAATCTTGCACGCCCTCGCGCGTGTAAATGAATTACATGCGCCACCAAACGTTTCGG"}}, "key": {"MatA [1]": {"biological_target": "T1, MatA (Dictyostelium discoideum, UniProt Q54HW9 1-107)", "T1 sequence": "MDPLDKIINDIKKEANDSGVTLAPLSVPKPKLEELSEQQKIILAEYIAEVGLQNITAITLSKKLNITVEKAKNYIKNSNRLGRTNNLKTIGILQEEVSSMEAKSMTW", "experiment": "NMR; 80 uM DNA, 20 uM MatA; CSPs at L32, L35, E69, I75, K76, N77; EMSA: 10 mM Tris-HCl pH 7.4, 1 mM EDTA, 20 mM NaCl, 30 min room temperature, 6% polyacrylamide gel in 1x tris-borate. NMR: 25 mM phosphate pH 6, 50 mM NaCl, 50", "settings": "protein: recombinant; tags: His6-lipoyl domain tag removed by TEV (15N-labeled for NMR); label: none; blunt"}, "MatB S71A [2]": {"biological_target": "T2, MatB S71A (Dictyostelium discoideum, UniProt D3UFE5 1-107, S71A)", "T2 sequence": "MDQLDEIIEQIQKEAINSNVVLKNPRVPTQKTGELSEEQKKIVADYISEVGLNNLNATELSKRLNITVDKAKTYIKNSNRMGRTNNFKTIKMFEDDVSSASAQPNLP", "experiment": "NMR; 80 uM DNA, 20 uM protein, 1 C; core signals lost by intermediate exchange broadening; EMSA: 10 mM Tris-HCl pH 7.4, 1 mM EDTA, 20 mM NaCl, 30 min room temperature, 6% polyacrylamide gel in 1x tris-borate. NMR: 25 mM phosphate pH 6, 50 mM NaCl, 50", "settings": "protein: recombinant; tags: His6-lipoyl domain tag removed by TEV (15N-labeled for NMR); label: none; blunt"}, "MatA [3]": {"biological_target": "T1, MatA", "experiment": "NMR; 58-bp titration 40-120 uM DNA, 20 uM MatA; fast exchange, very weak, unsaturated; EMSA: 10 mM Tris-HCl pH 7.4, 1 mM EDTA, 20 mM NaCl, 30 min room temperature, 6% polyacrylamide gel in 1x tris-borate. NMR: 25 mM phosphate pH 6, 50 mM NaCl, 50", "settings": "protein: recombinant; tags: His6-lipoyl domain tag removed by TEV (15N-labeled for NMR); label: none; blunt"}, "MatA K72A/K76A": {"biological_target": "T3, MatA K72A/K76A (Dictyostelium discoideum, UniProt D3UFF3 1-107, K72A;K76A)", "T3 sequence": "T1 sequence with K72A, K76A", "experiment": "EMSA; EMSA: 10 mM Tris-HCl pH 7.4, 1 mM EDTA, 20 mM NaCl, 30 min room temperature, 6% polyacrylamide gel in 1x tris-borate. NMR: 25 mM phosphate pH 6, 50 mM NaCl, 50", "settings": "protein: recombinant; tags: His6-lipoyl domain tag removed by TEV; label: none (SYBR Gold stain); blunt"}, "MatB": {"biological_target": "T4, MatB (Dictyostelium discoideum, UniProt D3UFE5 1-107)", "T4 sequence": "T2 sequence with A71S", "experiment": "EMSA; nonspecific; EMSA: 10 mM Tris-HCl pH 7.4, 1 mM EDTA, 20 mM NaCl, 30 min room temperature, 6% polyacrylamide gel in 1x tris-borate. NMR: 25 mM phosphate pH 6, 50 mM NaCl, 50", "settings": "protein: recombinant; tags: His6-lipoyl domain tag removed by TEV; label: none (SYBR Gold stain); blunt"}, "MatB S71A [4]": {"biological_target": "T2, MatB S71A", "experiment": "EMSA; similar to wild type; EMSA: 10 mM Tris-HCl pH 7.4, 1 mM EDTA, 20 mM NaCl, 30 min room temperature, 6% polyacrylamide gel in 1x tris-borate. NMR: 25 mM phosphate pH 6, 50 mM NaCl, 50", "settings": "protein: recombinant; tags: His6-lipoyl domain tag removed by TEV (15N-labeled for NMR); label: none (SYBR Gold stain); blunt"}, "MatA [5]": {"biological_target": "T1, MatA", "experiment": "EMSA; smear; nonspecific, low affinity; EMSA: 10 mM Tris-HCl pH 7.4, 1 mM EDTA, 20 mM NaCl, 30 min room temperature, 6% polyacrylamide gel in 1x tris-borate. NMR: 25 mM phosphate pH 6, 50 mM NaCl, 50", "settings": "protein: recombinant; tags: His6-lipoyl domain tag removed by TEV (15N-labeled for NMR); label: none (SYBR Gold stain); blunt"}}, "note": "Numbering of substitutions follows the chain as printed.", "data": [{"binder": "B1", "values": [{"measurement": "binding result", "setting": "MatA [1]", "value": "binds"}, {"measurement": "binding result", "setting": "MatB S71A [2]", "value": "binds"}]}, {"binder": "B2", "values": [{"measurement": "binding result", "setting": "MatA [3]", "value": "binds"}]}, {"binder": "B3", "values": [{"measurement": "binding result", "setting": "MatA K72A/K76A", "value": "no binding"}, {"measurement": "binding result", "setting": "MatB", "value": "binds"}, {"measurement": "binding result", "setting": "MatB S71A [4]", "value": "binds"}, {"measurement": "binding result", "setting": "MatA [5]", "value": "binds"}]}]}
